Measurements taken from paper PMC6078178 (Nature, 2017).

T1: Med8 (S. cerevisiae, UniProt P38304 1-223)
T1 sequence (looked up): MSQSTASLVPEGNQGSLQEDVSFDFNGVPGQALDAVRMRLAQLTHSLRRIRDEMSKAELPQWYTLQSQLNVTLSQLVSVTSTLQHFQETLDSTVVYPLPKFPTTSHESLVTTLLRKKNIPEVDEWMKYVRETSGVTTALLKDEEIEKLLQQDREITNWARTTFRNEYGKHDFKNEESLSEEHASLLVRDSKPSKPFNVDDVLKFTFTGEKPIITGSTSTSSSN

T2: TFIIE (Tfa1 and Tfa2) (S. cerevisiae, UniProt P36100 1-482; P36145 1-328)
T2 sequence (looked up) 1: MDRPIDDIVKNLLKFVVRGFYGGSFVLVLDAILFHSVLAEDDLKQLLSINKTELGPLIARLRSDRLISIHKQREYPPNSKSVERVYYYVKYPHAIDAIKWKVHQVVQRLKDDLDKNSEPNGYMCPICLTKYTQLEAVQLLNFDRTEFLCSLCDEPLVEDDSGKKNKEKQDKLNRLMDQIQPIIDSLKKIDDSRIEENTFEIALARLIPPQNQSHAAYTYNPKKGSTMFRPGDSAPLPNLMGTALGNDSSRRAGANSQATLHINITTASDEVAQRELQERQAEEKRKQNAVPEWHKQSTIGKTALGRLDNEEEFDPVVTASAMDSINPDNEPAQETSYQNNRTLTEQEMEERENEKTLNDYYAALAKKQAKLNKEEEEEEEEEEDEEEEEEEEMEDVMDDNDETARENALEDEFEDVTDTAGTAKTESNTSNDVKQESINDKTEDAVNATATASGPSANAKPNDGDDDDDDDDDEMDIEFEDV
T2 sequence (looked up) 2: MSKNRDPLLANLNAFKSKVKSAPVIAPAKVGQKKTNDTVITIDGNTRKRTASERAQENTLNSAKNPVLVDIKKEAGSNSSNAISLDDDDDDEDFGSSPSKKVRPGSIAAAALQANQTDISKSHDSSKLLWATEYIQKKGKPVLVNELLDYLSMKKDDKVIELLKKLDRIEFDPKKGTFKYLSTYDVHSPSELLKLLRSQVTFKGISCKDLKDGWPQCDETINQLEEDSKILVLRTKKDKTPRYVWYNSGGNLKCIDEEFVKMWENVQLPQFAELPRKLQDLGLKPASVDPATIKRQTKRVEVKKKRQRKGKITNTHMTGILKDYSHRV

T3: Tfb2 (S. cerevisiae, UniProt Q02939 1-513)
T3 sequence (looked up): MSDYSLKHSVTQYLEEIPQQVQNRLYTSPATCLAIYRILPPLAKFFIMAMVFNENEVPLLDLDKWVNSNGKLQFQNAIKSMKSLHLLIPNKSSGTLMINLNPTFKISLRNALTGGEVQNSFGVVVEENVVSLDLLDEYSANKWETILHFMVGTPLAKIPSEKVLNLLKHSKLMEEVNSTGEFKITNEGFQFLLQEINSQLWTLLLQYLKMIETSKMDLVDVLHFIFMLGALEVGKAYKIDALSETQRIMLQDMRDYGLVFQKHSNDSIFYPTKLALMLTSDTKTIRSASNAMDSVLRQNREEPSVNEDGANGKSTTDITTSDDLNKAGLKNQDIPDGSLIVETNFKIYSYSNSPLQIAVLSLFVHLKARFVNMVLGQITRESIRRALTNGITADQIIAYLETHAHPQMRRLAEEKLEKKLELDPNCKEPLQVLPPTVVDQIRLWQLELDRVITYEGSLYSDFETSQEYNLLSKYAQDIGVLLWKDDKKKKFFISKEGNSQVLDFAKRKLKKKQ

T4: Ssl2 (S. cerevisiae, UniProt Q00578 1-843)
T4 sequence (looked up): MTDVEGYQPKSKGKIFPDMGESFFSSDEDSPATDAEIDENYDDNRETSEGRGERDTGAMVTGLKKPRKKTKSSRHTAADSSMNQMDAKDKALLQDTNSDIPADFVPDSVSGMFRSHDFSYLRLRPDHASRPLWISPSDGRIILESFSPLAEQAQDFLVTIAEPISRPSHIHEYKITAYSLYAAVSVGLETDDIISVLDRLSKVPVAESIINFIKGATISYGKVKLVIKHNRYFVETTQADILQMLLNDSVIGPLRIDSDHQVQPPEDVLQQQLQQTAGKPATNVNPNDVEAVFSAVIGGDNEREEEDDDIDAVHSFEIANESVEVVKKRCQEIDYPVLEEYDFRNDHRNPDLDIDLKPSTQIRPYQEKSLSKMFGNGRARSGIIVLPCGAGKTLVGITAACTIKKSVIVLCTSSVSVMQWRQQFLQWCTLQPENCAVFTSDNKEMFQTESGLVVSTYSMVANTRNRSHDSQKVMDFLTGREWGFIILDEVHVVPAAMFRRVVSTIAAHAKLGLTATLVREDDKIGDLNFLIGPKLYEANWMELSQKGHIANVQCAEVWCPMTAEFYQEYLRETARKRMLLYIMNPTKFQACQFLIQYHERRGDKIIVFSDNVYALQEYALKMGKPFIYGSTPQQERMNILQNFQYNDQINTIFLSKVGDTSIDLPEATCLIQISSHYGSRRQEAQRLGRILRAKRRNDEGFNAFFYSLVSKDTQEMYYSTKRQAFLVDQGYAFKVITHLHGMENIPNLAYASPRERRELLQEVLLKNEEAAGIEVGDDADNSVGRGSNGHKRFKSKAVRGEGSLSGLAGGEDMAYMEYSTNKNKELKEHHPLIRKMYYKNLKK

T5: Tfb1 (S. cerevisiae, UniProt P32776 1-642)
T5 sequence (looked up): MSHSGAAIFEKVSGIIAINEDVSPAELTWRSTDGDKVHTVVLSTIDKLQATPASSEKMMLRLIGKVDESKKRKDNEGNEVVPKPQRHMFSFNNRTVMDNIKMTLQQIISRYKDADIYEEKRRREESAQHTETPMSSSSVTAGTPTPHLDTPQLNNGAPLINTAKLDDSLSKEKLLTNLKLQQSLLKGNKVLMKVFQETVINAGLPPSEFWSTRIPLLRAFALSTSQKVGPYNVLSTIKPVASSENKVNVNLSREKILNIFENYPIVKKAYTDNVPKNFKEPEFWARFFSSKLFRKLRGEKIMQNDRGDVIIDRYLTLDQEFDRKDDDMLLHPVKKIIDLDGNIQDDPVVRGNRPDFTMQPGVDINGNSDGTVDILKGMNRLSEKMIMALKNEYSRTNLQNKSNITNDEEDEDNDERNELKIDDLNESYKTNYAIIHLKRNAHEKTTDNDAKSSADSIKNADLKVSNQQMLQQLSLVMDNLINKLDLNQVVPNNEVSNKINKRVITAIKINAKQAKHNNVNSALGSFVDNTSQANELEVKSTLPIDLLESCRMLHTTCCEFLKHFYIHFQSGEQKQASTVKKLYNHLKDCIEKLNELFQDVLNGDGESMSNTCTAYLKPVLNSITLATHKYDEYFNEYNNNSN

B1: Med22 (natural protein, S. cerevisiae, UniProt P32570 1-121, looked up)
chain: MSNQALYEKLEQTRTILSVKLAELINMTTIADRNDDDEGSFAQENSELAVATTSVMMVNNQTMQLIKNVQDLLILTRSIKEKWLLNQIPVTEHSKVTRFDEKQIEELLDNCIETFVAEKTT
B2: Rpb4 (Pol II stalk subunit) (natural protein, S. cerevisiae)
chain: MNVSTSTFQTRRRRLKKVEEEENAATLQLGQEFQLKQINHQGEEEELIALNLSEARLVIKEALVERRRAFKRSQKKHKKKHLKHENANDETTAVEDEDDDLDEDDVNADDDDFMHSETREKELESIDVLLEQTTGGNNKDLKNTMQYLTNFSRFRDQETVGAVIQLLKSTGLHPFEVAQLGSLACDTADEAKTLIPSLNNKISDDELERILKELSNLETLY
B3: Tfb3 (natural protein, S. cerevisiae, UniProt Q03290 1-321, looked up)
chain: MLMDEYEENKDMCPICKTDRYLSPDVKFLVNPECYHRICESCVDRIFSLGPAQCPYKGCDKILRKNKFKTQIFDDVEVEKEVDIRKRVFNVFNKTIDDFNGDLVEYNKYLEEVEDIIYKLDHGIDVAKTEEKLRTYEELNKQLIMNNLERSRTEIESFEQRQKFEKEMKLKKRLLERQIEEEERMNKEWTKKEIVNRLSTTTQDINETIEGVKNTVKLKKSSARRKLEELNRVLKNNPYFNSNVNVQNSRLKDAVPFTPFNGDREAHPRFTLKGSVYNDPFIKDLEHRKEFIASGFNTNYAYERVLTEAFMGLGCVISEEL
B4: Rpb7 (Pol II stalk subunit) (natural protein, S. cerevisiae, UniProt P34087 1-171, looked up)
chain: MFFIKDLSLNITLHPSFFGPRMKQYLKTKLLEEVEGSCTGKFGYILCVLDYDNIDIQRGRILPTDGSAEFNVKYRAVVFKPFKGEVVDGTVVSCSQHGFEVQVGPMKVFVTKHLMPQDLTFNAGSNPPSYQSSEDVITIKSRIRVKIEGCISQVSSIHAIGSIKEDYLGAI
B5: Tfa1 (TFIIE subunit) (natural protein, S. cerevisiae, UniProt P36100 1-482, looked up)
chain: T2 sequence (looked up) 1

How the values were obtained:
[1] = biological target: B2; test: cryo-EM structure
Med8 = biological target: T1, Med8; test: cryo-EM structure
TFIIE (Tfa1 and Tfa2) = biological target: T2, TFIIE (Tfa1 and Tfa2); test: cryo-EM structure
Tfb3 = biological target: B3; test: cryo-EM structure
Tfb2 = biological target: T3, Tfb2; test: cross-linking
Ssl2 = biological target: T4, Ssl2; test: cryo-EM structure
Tfb1 = biological target: T5, Tfb1; test: cryo-EM structure

Binder: B1
binding result [1]: binds

Binder: B2
binding result (Med8): binds

Binder: B3
binding result (TFIIE (Tfa1 and Tfa2)): binds

Binder: B4
binding result (Tfb3): binds

Binder: B5
binding result (Tfb2): binds
binding result (Ssl2): binds
binding result (Tfb1): binds
